B1: minF1; a variant is named by its letters at N, in order (parent)
chain: GAGACCGCAACTGAAAAGTTGTTNNNNAANNNNGGNTNNATTTCTGCACGTAGAAGCAAAAGGC

Variants of: B1
Assay: fraction ligated after 30 min (ligated reads / total reads); higher = more ligase activity
Settings: with F1*subA RNA substrate (template-directed ligation), 42 °C
Description: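 Chip-synthesised pool of minF1 ligase ribozyme variants (single and double substitutions, single to quadruple deletions, bulge and P2 designed variants) was transcribed with T7 and reacted as a pool with excess substrate F1*subA for 30 min at 42 C in 50 mM EPPS pH 8.5, 25 mM MgCl2. Ligated and unligated RNAs were separated by PAGE, barcoded by RT and deep sequenced; fraction ligated = ligated reads / total reads, relative activity = FL / FL of wild-type minF1 (0.76); sequencing FL correlated with PAGE (R2 = 0.98). Sequences are the DNA template of the ribozyme.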

Variant | fraction ligated
ACAATGATGTG | 0.00556
CAGAGGATTGA A29T | 0.0052
CAGATGTGTGA T23A | 0.00226
AAAAGATGTGA A29T | 0.00419
AAAAGATGTGA A29G | 0.00274
ACAAGGATTGA A29T | 0.00464
TAGAGGATGTG T23A A29T | 0.00945
AAGATATGTGA | 0.00183
TAGAGGAGTGA T23A A29T | 0.00307
CAAAGGATTGA A29T | 0.0034
TCAATGGTGTG T23A | 0.00466
TAGATGGAGTA T23A | 0.000612
ACAATGGAGTA | 0.00362
ACAATGGAGTG | 0.00309
TAGAGGTGTGA T23A A29T | 0.00331
TAAAGATGTGA A28T A29G | 0.00323
CAAAGGAGTGA A29T | 0.00216
TAGATATGTGA | 0.00128
AAGAGGTGTGA A29T | 0.00145
AAGATGGAGTT G34T T37G | 0.00134
AAGATGATGTA | 0.00102
AAGATGATGTG | 0.00397
TCAATGGAGTT G34T T37G | 0.00235
TCAATGGGTGA T23A | 0.00158

Variant | fraction ligated
TAAAGATGTGA T23A A29G | 0.00271
TAAAGATGTGA T23A A29T | 0.00358
TCAATGGAGTA T23A | 0.00206
TAGAGGATGTG A29T | 0.0045
CAAAGGATTGA T23A A29T | 0.00487
CAGATGGTTGA | 0.000297
AAAAGATGTGA A28T A29G | 0.00466
TAGAGGTGTGA T23A | 0.00196
AAGAGGAGTGA A29T | 0.00209
TAGAGGATTGA | 0.00125
TCAAGATGTGA A29G | 0.0031
TCAAGATGTGA A29T | 0.00235
TCAATGGAGTA T23A G34T | 0.0178
TCAAGGTGTGA | 0.00226
CAGATGAGTGA T23A | 0.00277
CAGAGGATGTG T23A | 0.00549
AAGAGATGTGA | 0.00157
TAGATGGAGTA T23A G34T | 0.0029
CAGAGGATGTG T23A A29T | 0.0132
TAGATGGAGTT G34T T37G A40G | 0.00199
TAGATGGAGTG T23A | 0.00424
TCAAGGATGTG T23A | 0.00539
CAGATGGAGTA G34T | 0.00644
TCAAGATGTGA A28T A29G | 0.00257

Variant | fraction ligated
TAGATGGGTGA T23A | 0.000824
TCAATGATTGA T23A | 0.00254
ACAATGGGTGA | 0.00353
CAGAGATGTGA T23A A28T A29G | 0.00252
TCAAGGTGTGA T23A A29T | 0.00393
TAAAGGATGTA A29T | 0.00265
CAGATGGAGTG T23A G34T | 0.0111
TAGATGATTGA T23A | 0.00257
TAGAGATGTGA T23A A29G | 0.00131
TAGAGATGTGA T23A A29T | 0.00334
TAGATGAGTGA | 0.00265
AAAAGGATGTG A29T | 0.00334
TAGAGGATTGA T23A | 0.00191
TAGATGGAGTA | 0.00154
TAGATGGAGTG | 0.00279
TAGATGATGTA | 0.00158
TAGATGATGTG | 0.0051
AAGATGTGTGA | 0.00241
TCAATATGTGA | 0.00184
AAGATGGAGTG G34T | 0.00776
CAGAGGAGTGA T23A A29T | 0.000641
TCAATGGAGTG T23A G34T | 0.0342
CAGAGGATGTA | 0.000794
CAGAGGATGTG | 0.00526

Variant | fraction ligated
CAGATGGGTGA T23A | 0.00475
TAAAGGATTGA T23A A29T | 0.00317
CAGATGGTGTA | 0.00171
CAGATGGTGTG | 0.00377
CAGAGATGTGA | 0.00372
CAGATGGAGTT G34T T37G A40G | 0.000312
CAGATGAGTGA | 0.00146
TAGATGGTTGA | 0.00065
AAGAGGATGTG A29T | 0.00669
ACAATGGAGTA G34T | 0.0117
ACAAGATGTGA | 0.00207
TAGAGGAGTGA A29T | 0.00156
TCAATGATGTA T23A | 0.00393
CAGAGGAGTGA T23A | 0.00148
TAGATATGTGA T23A | 0.00255
CAGAGGAGTGA A29T | 0
CAAAGATGTGA T23A A29G | 0.00234
CAAAGATGTGA T23A A29T | 0.00168
AAAAGATGTGA T23C A28T A29G | 0.00238
GAAAGATGTGA A28T A29G | 0.00247
TCAAGGATTGA | 0.00222
TCAAGGATGTA T23A | 0.000851
TCAAGGATGTG | 0.00569
TCAAGGATGTA | 0.0017

Variant | fraction ligated
CAGATGGAGTG G34T | 0.0137
CAAAGGATGTA T23A A29T | 0.000678
TAGATGATGTA T23A | 0.00397
CAGATATGTGA | 0.00323
AAAAGGAGTGA A29T | 0.00356
TAAAGGATGTG T23A A29T | 0.00674
ACAAGGTGTGA | 0.00367
CAGATGGAGTG T23A | 0.00354
TAGATGGAGTG T23A G34T | 0.00936
AAGAGGTGTGA | 0.00286
TAGAGGATGTA A29T | 0.00262
TCAAGGATTGA T23A | 0.00297
ACAAGGATGTG A29T | 0.00671
CAAAGGAGTGA T23A A29T | 0.00224
CAAAGGTGTGA T23A A29T | 0.00303
TAGAGATGTGA T23A | 0.00319
TAGAGGATGTA T23A A29T | 0.00136
TAAAGGATTGA A29T | 0.00151
TAGATGGAGTG G34T | 0.0121
TAAAGATGTGA A29T | 0.00224
TAAAGATGTGA A29G | 0.00158
CAGATGGTGTG T23A | 0.00474
ACAAGATGTGA A29T | 0.0029
ACAAGATGTGA A29G | 0.0031

Variant | fraction ligated
TCAAGGAGTGA T23A | 0.00195
AAGAGGAGTGA | 0.00337
CAGATGTGTGA | 0.00342
AAGATGGTTGA | 0.00185
TAGAGATGTGA | 0.00183
ACAAGGAGTGA | 0.00357
AAGATGAGTGA | 0.00469
CAGATGGAGTG | 0.00678
CAGATGGAGTA | 0.00249
TAGATGGTGTG T23A | 0.00451
TCAATGGAGTT T23A G34T T37G | 0.00105
TCAATATGTGA T23A | 0.00157
TAGATGGTGTA T23A | 0.00161
TAGATGGTGTG | 0.0042
TAGATGGTGTA | 0.00141
TCAAGATGTGA T23A A29G | 0.00178
TCAAGATGTGA T23A A29T | 0.00239
ACAATGGAGTG G34T | 0.0274
ACAAGATGTGA A28T A29G | 0.00369
ACAAGGATGTA | 0.00108
ACAAGGATGTG | 0.00585
CAGAGGATTGA T23A A29T | 0.00274
ACAATGATTGA | 0.00348
CAGAGATGTGA A28T A29G | 0.00451

Variant | fraction ligated
TCAAGGATTGA T23A A29T | 0.00443
TCAAGATGTGA T23A | 0.0017
TAAAGGTGTGA T23A A29T | 0.00275
TCAAGGATGTG T23A A29T | 0.0062
TCAATGATGTG T23A | 0.00503
TCAATGGAGTG G34T | 0.0438
TCAAGGATGTA A29T | 0.00204
ACAATGAGTGA | 0.000748
TCAATGGAGTT T23A G34T T37G A40G | 0.00124
CAGATGGAGTT T23A G34T T37G A40G | 0.00303
AAGAGATGTGA A28T A29G | 0.00397
AAGAGGATTGA A29T | 0.007
TAGATGAGTGA T23A | 0.00274
ACAAGGATTGA | 0.00332
CAAAGGATGTG A29T | 0.0079
CAGAGGAGTGA | 0.0058
ACAAGGAGTGA A29T | 0.00407
CAGATGATTGA T23A | 0.00168
TAGATGGGTGA | 0.00433
TCAATGGGTGA | 0.00124
GAAAGATGTGA T23C A28T A29G | 0.00212
TAAAGGATGTA T23A A29T | 0.000932
TCAATGGATGA T23A | 0.00363

Reference: the supplement of paper PMC6755084
